Experimental data as given in patent US20170129961A1 (Amgen, published 2017).

Experiments:
Experiment in all cases: FACS on CHO cells, periplasmic scFv
human CD70 = molecular target: T1, human CD70 (human, UniProt P32970 1-193)
T1 construct: also called hu CD70; CD27L
T1 sequence: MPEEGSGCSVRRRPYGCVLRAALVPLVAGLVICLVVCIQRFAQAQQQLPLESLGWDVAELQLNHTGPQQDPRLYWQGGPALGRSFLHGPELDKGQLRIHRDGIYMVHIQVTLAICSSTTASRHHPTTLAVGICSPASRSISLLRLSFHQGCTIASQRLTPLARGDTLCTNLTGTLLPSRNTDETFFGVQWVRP
Procedure: (§1) All antibodies were diluted in PBS/1.5% FCS. As negative control, cells were incubated with PBS/2% FCS instead of the periplasmic extract. The samples were measured by flow cytometry.

[1] = molecular target: T2, full-length mouse CD70 with C-terminal V5 tag (mouse, UniProt O55237 1-195)
T2 construct: On transfected CHO cells; also called murine CD70
T2 sequence: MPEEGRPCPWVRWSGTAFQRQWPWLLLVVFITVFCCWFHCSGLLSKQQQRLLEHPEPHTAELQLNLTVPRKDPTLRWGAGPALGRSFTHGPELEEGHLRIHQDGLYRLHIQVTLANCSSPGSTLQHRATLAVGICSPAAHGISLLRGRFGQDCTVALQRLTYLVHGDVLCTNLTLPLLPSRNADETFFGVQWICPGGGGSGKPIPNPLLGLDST
Procedure: as §1

[2] = molecular target: T3, full length human CD70 with C-terminal V5 tag (human, UniProt P32970 1-193)
T3 construct: On transfected CHO cells; also called huCD70-V5
T3 sequence: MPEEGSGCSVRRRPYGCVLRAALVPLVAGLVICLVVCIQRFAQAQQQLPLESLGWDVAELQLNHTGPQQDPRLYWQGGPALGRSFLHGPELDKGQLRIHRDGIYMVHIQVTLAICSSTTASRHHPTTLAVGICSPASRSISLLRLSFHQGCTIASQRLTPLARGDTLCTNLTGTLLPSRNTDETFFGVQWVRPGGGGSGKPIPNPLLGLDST
Procedure: as §1

B1: CD70-56 (scFv)
scFv: QVQLVESGGGVVQPGRSLRLSCAASGFTFSSYGMHWVRQAPGKGLEWVAVISYDGSNKYYADSVKGRFTISRDNSKNTLYLQMNSLRAEDTAVYYCARGRYYGSGSYNYGMDVWGQGTTVTVSSGGGGSGGGGSGGGGSDIQMTQSPSSLSASVGDRVTITCRASQSIFDYLNWYQQKPGKAPKLLIYAASSLQSGVPSRFSGSGFGTDFTLTISSLQPEDFATYYCQQSYSTPLTFGGGTKLEIK
notes: As m32
- binding result (human CD70): binds
- binding result [1]: no binding
- binding result [2]: no binding

B2: CD70-71 (scFv)
scFv: QVQLVESGGGVVQPGRSLRLSCAASGFTFSSYGMHWVRQAPGKCLEWVAVISYDGSNKYYADSVKGRFTISRDNSKNTLYLQMNSLRAEDTAVYYCARGRYYGSGSYNYGMDVWGQGTTVTVSSGGGGSGGGGSGGGGSDIQMTQSPSSLSASVGDRVTITCRASQSIFDYLNWYQQKPGKAPKLLIYAASSLQSGVPSRFSGSGFGTDFTLTISSLQPEDFATYYCQQSYSTPLTFGCGTKLEIK
notes: As m32
- binding result (human CD70): binds
- binding result [1]: no binding
- binding result [2]: no binding

B3: CD70-57 (scFv)
scFv: QVQLVESGGGVVQPGRSLRLSCAASGFTFSSYGMHWVRQAPGKGLEWVAVIWYDGSSEYYADSVKGRFTISRDNSKNTLYLQMNSLRAEDTAVYYCARDNSYNYYGMDVWGQGTTVTVSSGGGGSGGGGSGGGGSQSVLTQPPSVSGAPGQRVTISCTGSSSNIGAAYDVHWYQQFPGTAPKLLIYVNSHRPPGVPDRFSGSKSGTSASLAITGLQAEDEADYYCLSYDNSLSGSVFGGGTKLTVL
- binding result (human CD70): binds
- binding result [1]: no binding

B4: CD70-58 (scFv)
scFv: QVQLQESGPGLVKPSQTLSLTCTVSGGSISSSSYYWGWIRQPPGKGLEWIGSIYHSGGTYFNPSLKSRVTISVDTSKNQFSLKLSSVTAADTAVYYCARHYEILTGYYPDVFDIWGQGTMVTVSSGGGGSGGGGSGGGGSDIQMTQSPSSLSASVGDRVTITCRASQSISSYLNWYQQKPGKAPKLLIYAASNLQSGVSSRFSGSGSGTDFTLTISSLQPEDFATYYCQQSFSSPRTFGQGTKVEIK
- binding result (human CD70): binds
- binding result [1]: no binding

B5: CD70-59 (scFv)
scFv: QVQLQQWGAGLLKPSETLSLTCAVYDGSVSGFYWSWIRQPPGKGLEWIGEIDHSGSTNYNPSLKSRVTISVDTSKNQFSLKLSSVTAADSAVYYCARNGYSGYLFDYWGQGTLVTVSSGGGGSGGGGSGGGGSDIQMTQSPSSLSASVGDRVTITCRASQIISSYLNWYQQKPGKAPKVLIYGASSMQSGVPSRFSGSGYGTDFTLTISSLQPEDFATYYCQQSYSIPRTFGQGTKLEIK
- binding result (human CD70): binds
- binding result [1]: no binding

B6: CD70-62 (scFv)
scFv: EVQLVESGGGLVKPGGSLRLSCAASGFTFSSYSMNWVRQAPGKGLEWVSYISSSGGYIYYADSVKGRFTISRDNAKNSLYLQMNSLRAEDAAVYYCSRGDYSNYAYFDYWGQGTLVTVSSGGGGSGGGGSGGGGSDIQMTQSPSSLSASVGDRVTITCRASQGISNYLAWYQQKPGKVPKLLIYAASTLQSGVPSRFSGSGSGTDFTLTISSLQAEDVAVYYCQQYYSTPLTFGGGTKVEIK
notes: As m32
- binding result (human CD70): binds
- binding result [1]: no binding

B7: CD70-73 (scFv)
scFv: EVQLVESGGGLVKPGGSLRLSCAASGFTFSSYSMNWVRQAPGKCLEWVSYISSSGGYIYYADSVKGRFTISRDNAKNSLYLQMNSLRAEDAAVYYCSRGDYSNYAYFDYWGQGTLVTVSSGGGGSGGGGSGGGGSDIQMTQSPSSLSASVGDRVTITCRASQGISNYLAWYQQKPGKVPKLLIYAASTLQSGVPSRFSGSGSGTDFTLTISSLQAEDVAVYYCQQYYSTPLTFGCGTKVEIK
notes: As m32
- binding result (human CD70): binds
- binding result [1]: no binding

B8: CD70-63 (scFv)
scFv: EVQLVESGGGLVKPGGSLRLSCAASGITFSTYTMNWVRQAPGKGLEWVSSISSSSGYIYYADSVKGRFTISRDNAKNSLYLQMNSLRAEDTAVYYCARGDYSNYLYFDLWGRGTLVTVSSGGGGSGGGGSGGGGSEIVLTQSPGTLSLSPGERATLSCRASQSFRSSYLAWYQQKPGQAPRLLIHGASSRATGIPDRFSGSGSGTDFTLTISRLEPEDFAVYYCQLYGSLPITFGQGTRLEIK
- binding result (human CD70): binds
- binding result [1]: no binding

B9: CD70-64 (scFv)
scFv: EVQLLESGGGLVQPGGSLRLSCAASGFTFSVYAMSWVRQAPGKCLEWVSTISDSGGSTFYADSVKGRFTISRDNSKNTLYLQMNRLRAEDTAVYYCARHDYSNYAYFDYWGQGTLVTVSSGGGGSGGGGSGGGGSEIVLTQSPGTLSLSPGERATLSCRASQSVRSSYLAWYQQKPGQAPRLLIYGASSRATGIPDRFSGSGSGTDFTLTISRLEPEDFAVYYCQQYGDLPFTFGCGTKVEIK
notes: As m32
- binding result (human CD70): binds
- binding result [1]: no binding
